{"source": "paper doi:10.1101/2024.12.05.626941", "experiment_in_all_cases": "SEC", "key": {"[1]": {"target": "Physcomitrella patens adenosine kinase 2 (PpADK2) (Physcomitrella patens)"}, "[2]": {"target": "Zea mays adenosine kinase 1 (ZmADK1) (Zea mays)"}, "[3]": {"target": "Zea mays adenosine kinase 2 (ZmADK2) (Zea mays)"}, "[4]": {"target": "Zea mays adenosine kinase 3 (ZmADK3) (Zea mays)"}}, "data": [{"substance": "Physcomitrella patens adenosine kinase 2 (PpADK2) (enzyme)", "values": [{"measurement": "stoichiometry N", "setting": "[1]", "result": 2}]}, {"substance": "Zea mays adenosine kinase 1 (ZmADK1) (enzyme)", "values": [{"measurement": "stoichiometry N", "setting": "[2]", "result": 2}]}, {"substance": "Zea mays adenosine kinase 2 (ZmADK2) (enzyme)", "values": [{"measurement": "stoichiometry N", "setting": "[3]", "result": 2}]}, {"substance": "Zea mays adenosine kinase 3 (ZmADK3) (enzyme)", "values": [{"measurement": "stoichiometry N", "setting": "[4]", "result": 2}]}]}
